Numbering of substitutions follows the chain as printed.
Tests used:
[1] = molecular target: T1, AtGRP2-CSD1-90 WT (Arabidopsis thaliana, UniProt Q41188 1-90); assay: NMR HSQC titration; up to 2x molar excess; 20 mM sodium phosphate pH 6.5, 50 mM NaCl, 25 C (fluorescence); NMR titrations in the same buffer plus 250 uM PMSF, 3 mM NaN3, 5% D2O, 298 K; settings: protein: recombinant; tags: N-terminal Trx(6 aa)-His6-TEV tag, cleaved
T1 sequence: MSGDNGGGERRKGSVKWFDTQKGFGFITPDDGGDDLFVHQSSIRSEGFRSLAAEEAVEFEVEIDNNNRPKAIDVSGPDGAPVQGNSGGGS

[2] = molecular target: T2, AtGRP2-CSD1-79 (Arabidopsis thaliana, UniProt Q41188 1-79); assay: intrinsic Trp fluorescence quenching; 20 mM sodium phosphate pH 6.5, 50 mM NaCl, 25 C (fluorescence); NMR titrations in the same buffer plus 250 uM PMSF, 3 mM NaN3, 5% D2O, 298 K; settings: protein: recombinant; tags: N-terminal Trx(6 aa)-His6-TEV tag, cleaved
T2 sequence: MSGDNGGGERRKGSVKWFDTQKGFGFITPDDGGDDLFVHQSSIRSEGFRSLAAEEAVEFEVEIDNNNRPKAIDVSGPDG

[3] = molecular target: T3, AtGRP2-CSD1-90 F48A (Arabidopsis thaliana, UniProt Q41188 1-90, F48A); assay: fluorescence anisotropy; 20 mM sodium phosphate pH 6.5, 50 mM NaCl, 25 C (fluorescence); NMR titrations in the same buffer plus 250 uM PMSF, 3 mM NaN3, 5% D2O, 298 K; settings: protein: recombinant; tags: N-terminal Trx(6 aa)-His6-TEV tag, cleaved; label: 5'-rhodamine
T3 sequence: T1 sequence with F48A

[4] = molecular target: T4, AtGRP2-CSD1-90 H39A (Arabidopsis thaliana, UniProt Q41188 1-90, H39A); assay: as above; settings: protein: recombinant; tags: N-terminal Trx(6 aa)-His6-TEV tag, cleaved; label: 5'-rhodamine
T4 sequence: T1 sequence with H39A

[5] = molecular target: T5, AtGRP2-CSD1-90 R49A (Arabidopsis thaliana, UniProt Q41188 1-90, R49A); assay: as above; settings: protein: recombinant; tags: N-terminal Trx(6 aa)-His6-TEV tag, cleaved; label: 5'-rhodamine
T5 sequence: T1 sequence with R49A

[6] = molecular target: T1, AtGRP2-CSD1-90 WT; assay: as above; settings: protein: recombinant; tags: N-terminal Trx(6 aa)-His6-TEV tag, cleaved; label: 5'-rhodamine
[7] = molecular target: T6, AtGRP2-CSD1-90 F37A (Arabidopsis thaliana, UniProt Q41188 1-90, F37A); assay: fluorescence anisotropy; no saturation; text: binding abolished; 20 mM sodium phosphate pH 6.5, 50 mM NaCl, 25 C (fluorescence); NMR titrations in the same buffer plus 250 uM PMSF, 3 mM NaN3, 5% D2O, 298 K; settings: protein: recombinant; tags: N-terminal Trx(6 aa)-His6-TEV tag, cleaved; label: 5'-rhodamine
T6 sequence: T1 sequence with F37A

[8] = molecular target: T7, AtGRP2-CSD1-90 W17A (Arabidopsis thaliana, UniProt Q41188 1-90, W17A); assay: as above; settings: protein: recombinant; tags: N-terminal Trx(6 aa)-His6-TEV tag, cleaved; label: 5'-rhodamine
T7 sequence: T1 sequence with W17A

[9] = molecular target: T8, AtGRP2-CSD1-90 F26A (Arabidopsis thaliana, UniProt Q41188 1-90, F26A); assay: as above; settings: protein: recombinant; tags: N-terminal Trx(6 aa)-His6-TEV tag, cleaved; label: 5'-rhodamine
T8 sequence: T1 sequence with F26A

GGGGGGG (ssDNA) [G7]: no binding [1].

AAAAAAA (ssDNA) [A7]: no binding [1].

For TTTTTTT (ssDNA) [T7], the Kd [2] was 22 ± 2.4 µM.

TTTTTTT (ssDNA) [Rho-T7] showed a Kd [3] of 38.6 ± 6.3 µM, a Kd [4] of 210 ± 36.8 µM and a Kd [5] of 45.7 ± 6.8 µM. For the same binder, the Kd [6] was 17.2 ± 2.4 µM, the binding result [7] was “no binding” and the binding result [8] was “no binding”. TTTTTTT (ssDNA) [Rho-T7]: no binding [9].

UUUUUUU (ssRNA) [Rho-U7] showed a Kd [6] of 76.8 ± 9.7 µM.

From paper PMC11602973, “Structural basis of nucleic acid recognition by the N-terminal cold shock domain of the plant glycine-rich protein AtGRP2”
